According to patent US8796227B2, “Peptides for inhibiting chemokine binding to chemokine receptors” (Biokine Therapeutics Ltd., priority 2002, dated 2014):
“Also recorded” adds a separate entry of the source.

How the values were obtained:
Human MCP-1 = molecular target: T1, Human MCP-1 (Homo sapiens, UniProt P13500); assay: ELISA analysis of the synthetic chemokine-binding peptide; conditions: chemokine-coated wells, specific binding = at least two fold of binding to control proteins (BSA, Actin, Fibronectin)
T1 construct: purchased PeproTech, Inc. 300-04
T1 sequence (P13500 24-99): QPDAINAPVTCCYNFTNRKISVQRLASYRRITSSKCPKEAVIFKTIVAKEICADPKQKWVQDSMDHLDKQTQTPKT
Method: (§1) Recombinant chemokines were ordered from PeproTech, Inc. (Rocky Hill, N.J., USA). Human SDF-1α (Cat. No. 300-28A), human MIG (Cat. No. 300-26) and human IL-8, (72 amino acids) (Cat. No. 200-08M), belong to the alpha-chemokines (C-X-C) family. Human MCP-1 (MCAF) (Cat. No. 300-04) and human Eotaxin (Cat No. 300-21) belong to the beta-chemokines (C-C family). All chemokines were prepared according to the company recommendations.
(§2) Peptides were synthesized in the Weizmann Institute of Science, Rehovot, Israel, in order to perform tests for characterization of their influence on the biological activity of the chemokines. The format of the various synthesized peptides was as follows: The cyclic peptides, ACX7CGGGSK-biotin-G and the linear peptides, X12GGGSK-biotin-G. The peptides were biotinylated on their C-termini; the biotin will serve as a detector during the following experiments. Each synthetic peptide was dissolved to concentration of 1 mg/ml (˜0.6 mM) in 4% DMSO (Dimethyl Sulphoxide, Sigma, Cat. # D-2650).
(§3) NUNC-Immuno™ MaxiSorp™ plates (Cat. No. 4-42404) were coated with the appropriate chemokine (0.1 ml/well, 0.1-1.0 μg/ml in 0.1 M NaHCO3, pH 8.6), overnight at 4° C. The plates were then blocked with 0.2 ml/well of blocking buffer (5 mg/ml BSA in 0.1 NaHCO3). Control wells were treated with blocking buffer alone, with no addition of target protein (chemokine). The plates were washed 6 times with PBST (0.1% Tween 20 in PBS), followed by incubation for 45 minutes at room temperature with 10-fold serial dilutions of individual synthetic peptides (10pg-10 μg) with 1% BSA (PBST-BSA)/well. After the plates were washed 6 times with PBST, the bound peptides were probed by HRP-SA Conjugate, diluted 1:10,000 to 1:20,000 in PBST-BSA, 0.1 ml/well for 45 minutes at room temperature. The target-bound synthetic peptides probed with HRP-SA were quantified by DAKO TMB one-step substrate system, followed by the addition of stop solution, HCl—H2SO4 mixture (0.1 ml/well) (1N HCl, 3N H2SO4). The results were analyzed by ELISA reader at OD450.
(§4) The present invention identifies chemokine-binding peptides with biological activity. The binding specificities of the various peptides to the chemokines were determined by screening against BSA, Actin and Fibronectin-coated wells as negative controls in parallel experiments. The binding level of the peptides to the various chemokines, which reached at least two fold of the binding level to the control proteins, was considered a specific binding.
(§5) The specific binding of the peptides was detected by screening methodology, using ELISA, as described in “Materials and Methods”, employing microplates coated with the various chemokines to be checked. The binding specificities of the various peptides to the various chemokines were determined by screening against BSA, Actin and Fibronectin-coated wells as negative controls in parallel experiments.
(§6) Again, the specificity of the binding, either to one chemokine or more, was established by comparing binding level with the control binding level to non-related proteins, (shown in the Figure as a broken line).

Eotaxin [1] = molecular target: T2, Eotaxin (Homo sapiens, UniProt P51671); assay: as above; conditions: chemokine-coated wells, specific binding = at least two fold of binding to control proteins (BSA, Actin, Fibronectin)
T2 construct: purchased PeproTech, Inc. 300-21
T2 sequence (P51671 24-97): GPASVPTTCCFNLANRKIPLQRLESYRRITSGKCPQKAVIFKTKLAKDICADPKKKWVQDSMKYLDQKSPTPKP
Method: as §1, §2, §3, §4, §5, §6

human IL-8 = molecular target: T3, human IL-8 (Homo sapiens, UniProt P10145); assay: as above; conditions: chemokine-coated wells, specific binding = at least two fold of binding to control proteins (BSA, Actin, Fibronectin)
T3 construct: human IL-8, (72 amino acids) (Cat. No. 200-08M); purchased PeproTech, Inc. 200-08M
T3 sequence (P10145 28-99 limits assumed): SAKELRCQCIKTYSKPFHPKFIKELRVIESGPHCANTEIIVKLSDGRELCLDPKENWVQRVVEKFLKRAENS
Method: as §1, §2, §3, §4, §5, §6

SDF-1α = molecular target: T4, SDF-1α (Homo sapiens, UniProt P48061); assay: as above; conditions: chemokine-coated wells, specific binding = at least two fold of binding to control proteins (BSA, Actin, Fibronectin)
T4 construct: purchased PeproTech, Inc. 300-28A
T4 sequence (P48061 22-89 limits assumed): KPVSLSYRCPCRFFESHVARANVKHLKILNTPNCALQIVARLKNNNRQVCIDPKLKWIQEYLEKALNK
Method: as §1, §2, §3, §4, §5, §6

IL-8 = molecular target: T5, IL-8 (Homo sapiens, UniProt P10145); assay: Biovalidation: laminar flow assay, chemokine and VCAM-1 activated adhesion of T cells; format: cell-based; parameters: key to Level of Antagonistic Effect / Level of Effect: + 20%; ++ 50%; +++ 100%; − No effect; conditions: VCAM-1; for Level of Antagonistic Effect: Chemokine checked IL-8, T cells, peptide 10 μg/ml; for Abolishment of the activity of IL-8: T cell adhesion under flow
T5 construct: human IL-8, (72 amino acids) (Cat. No. 200-08M); purchased PeproTech, Inc. 200-08M
T5 sequence (P10145 28-99): T3 sequence (P10145 28-99 limits assumed)

Eotaxin [2] = molecular target: T2, Eotaxin; assay: as above; format: cell-based; conditions: VCAM-1
MIG [3] = molecular target: T6, MIG (Homo sapiens, UniProt Q07325); assay: ELISA analysis of the synthetic chemokine-binding peptide; conditions: chemokine-coated wells, specific binding = at least two fold of binding to control proteins (BSA, Actin, Fibronectin)
T6 construct: purchased PeproTech, Inc. 300-26
T6 sequence (Q07325 23-125): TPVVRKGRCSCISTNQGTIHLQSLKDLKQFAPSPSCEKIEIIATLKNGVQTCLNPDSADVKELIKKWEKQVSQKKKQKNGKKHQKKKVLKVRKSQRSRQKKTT
Method: as §1, §2, §3, §4, §5, §6

[4] = test system: chemokines MCP-1, SDF-1α, MIG, Eotaxin and IL-8; assay: ELISA binding to the panel of chemokines (chemokine not singled out); parameters: species or system human; conditions: five chemokines tested, control binding level = one fold
Method: as §1, §2, §3
The present invention identifies chemokine-binding peptides with biological activity. The binding specificities of the various peptides to the chemokines were determined by screening against BSA, Actin and Fibronectin-coated wells as negative controls in parallel experiments. […]
The specific binding of the peptides was detected by screening methodology, using ELISA, as described in “Materials and Methods”, employing microplates coated with the various chemokines to be checked. The binding specificities of the various peptides to the various chemokines were determined by screening against BSA, Actin and Fibronectin-coated wells as negative controls in parallel experiments. […]

MIG [5] = molecular target: T6, MIG; assay: Biovalidation: laminar flow assay, chemokine and VCAM-1 activated adhesion of T cells; format: cell-based; conditions: for Level of Antagonistic Effect: Chemokine checked MIG, T cells, peptide 10 μg/ml; for Level of Antagonistic Effect / Reduction of the activity of MIG: VCAM-1; for Reduction of the activity of MIG: T cell adhesion under flow
Method: 50 ml blood was added to 10 ml Dextran (Dextran T-500 6% w/v) in PBS (phosphate buffer saline), and 7 ml citrate buffer (25 g citrate, 8 g citric acid in 500 ml PBS). The solution was incubated for 30 min at 25° C. 10 ml Ficoll 1077 (Sigma) was added to the bottom of the tube. The tube was then centrifuged at 2,000 rpm for 30 min, at 18° C., (with the brake mode of the centrifuge off). The interphase was collected and washed twice with 8 ml PBS-5% FCS (fetal calf serum), followed by centrifugation at 1,400 rpm, for 5 min, at 18° C. The cells were re-suspended in PBS-5% FCS at a concentration less than 10^8/ml. 2 ml of the cell solution were applied and incubated for 45 min at 25° C. on a Perspex Nylon wool column, which was pre-soaked with PBS-5% FCS. Each column was washed with 8 ml PBS-5% FCS and the cells (T-cells and erythrocytes) were eluted by 50 ml of 5 mM EDTA in PBS. A red pellet was obtained by centrifugation at 1,400 rpm, at 4° C., for 5 min, with the brake on. In order to perform lysis of the erythrocytes, the red pellet was re-suspended in 5 ml lysis-buffer (155 mM NH4Cl, 10 mM KHCO3, 0.1 mM EDTA, X0.1PBS) for 4 min, followed by immediate addition of 50 ml of PBS-EDTA.
Following centrifugation at 1,400 rpm, at 4° C., for 5 min with brake on, the pellet was washed again with 50 ml PBS-EDTA and re-centrifuged under the same conditions. A white pellet was obtained and re-suspended in RPMI/10% FCS/L-glutamine/sodium pyruvate/antibiotics at a concentration of 3^X10^6 cells/ml. The cells were incubated for 2 h at 37° C., followed by collection of the non-adherent cells. The cells were ready for use in experiments after overnight incubation at 37° C. […]
Laminar flow assays were performed as follows. Polystyrene plates (B.D) were coated with soluble VCAM-1 at 10 μg/ml in the presence of 2 μg/ml HSA carrier. The plates were washed three times with PBS and blocked with HSA (20 μg/ml in PBS) for 2 hrs at room temperature. Alternatively, washed plates were coated with 10 μg/ml MIG chemokine in PBS for 30 min at room temperature, before being blocked with HSA. The plates were assembled as the lower wall of a parallel wall flow chamber and mounted on the stage of an inverted microscope. The peptide, as described previously, (10 μg/ml) was allowed to settle on the substrate coated chamber wall for 10 min, at 37° C. and then washed. T cells (5×10^6/ml, purity >98%) were suspended in binding buffer, perfused into the chamber and allowed to settle on the substrate coated chamber wall for 1 min, at 37° C. Flow was initiated and increased in 2 to 2.5 fold increments every 5 sec. generating controlled shear stresses on the wall. Cells were visualized in a 20× objective of an inverted phase-contrast Diaphot Microscope (Nikon, Japan) and photographed with a long integration LIS-700 CCD video camera (Applitech; Holon, Israel), connected to a video recorder (AG-6730 S-VHS, Panasonic, Japan). The number of adherent cells resisting detachment by the elevated shear forces was determined after each interval by analysis of videotaped cell images, and was expressed as the percent of originally settled cells. All adhesion experiments were performed at least three times on multiple test fields.

Sequence | Bound chemokines (at least): MCP-1 (Human MCP-1) | Bound chemokines (at least): Eotaxin (Eotaxin [1]) | Bound chemokines (at least): IL-8 (human IL-8) | also measured
LDYPIPQTVLHH [BKT-P46] | MCP-1 |  |  | 
LGFDPTSTRFYT [BKT-P22] |  | bind and found to bind Eotaxin |  | 
LLADTTHHRPWP [BKT-P37] |  |  | IL-8 | 
SAGHIHEAHRPL [BKT-P39] |  | Eotaxin, | IL-8 | Bound chemokines (at least): SDF-1α (SDF-1α): SDF-1α; Level of Antagonistic Effect (IL-8): −; Abolishment of the activity of IL-8 (IL-8): no effect; Level of Antagonistic Effect (Eotaxin [2]; Chemokine checked Eotaxin, T cells, peptide 10 μg/ml): +++ (+++ 100%); Blocking of the activity of Eotaxin (Eotaxin [2]; T cell adhesion under flow): 100%
SAISDHRAHRSH [BKT-P40] |  |  | IL-8 | 
SFWHHHSPRSPL [BKT-P31] |  | Eotaxin |  | 
SIFAHQTPTHKN [BKT-P3] | MCP-1 |  | IL-8 | Bound chemokines (at least): MIG (MIG [3]): highest binding level and MIG; Binding to the various chemokines [4]: binds to all five chemokines tested; Level of Antagonistic Effect (MIG [5]): +++ (+++ 100%); Percentage of arrested cells (MIG [5]; MIG plus peptide (FIG. 4), MIG alone about 25-30%, control = VCAM-1 alone): dramatically reduced; Reduction of the activity of MIG (MIG [5]): complete arrest; Level of Antagonistic Effect (IL-8): +++ (+++ 100%); Abolishment of the activity of IL-8 (IL-8): complete arrest
SIPSHSIHSAKA [BKT-P2] | MCP-1, | Eotaxin | IL-8 | Level of Antagonistic Effect (MIG [5]): ++ (++ 50%); Reduction of the activity of MIG (MIG [5]): about 50%
SQTLPYSNAPSP [BKT-P1] |  |  |  | Bound chemokines (at least): SDF-1α (SDF-1α): bind and found to bind SDF-1α; Binding to the various chemokines [4]: bind specifically to various chemokines; also recorded: specifically to more than one chemokine
SVQTRPLFHSHF [BKT-P34] |  | Eotaxin |  | 
TRLVPSRYYHHP [BKT-P47] | MCP-1 |  |  | 
VHTSLLQKHPLP [BKT-P26] | MCP-1 |  |  | 
WSAHIVPYSHKP [BKT-P52] | MCP-1 |  |  | 
YATQHNWRLKHE [BKT-P53] | MCP-1 |  |  | 
